Data from publication PMC11511825.

Target: FUS-eGFP (C-terminally eGFP-tagged Fused in Sarcoma) (UniProt P35637)
Assay: FRET or BRET

## FUS-eGFP (C-terminally eGFP-tagged Fused in Sarcoma) (from UniProt P35637 1-526) (natural protein)
  apparent homoFRET efficiency (E Homo): 0.7
  steady-state fluorescence anisotropy in droplets (loss by homoFRET): 0.08
